We go through 5 molecules from US20200247894A1 (Regeneron, published 2020).

The target of test [1] is T1, D1 domain of human IL-2Rγ extracellular domain expressed with a C-terminal myc-myc-hexahistidine tag (human).
T1 construct: also called human IL2Rγ domain 1
T1 chain: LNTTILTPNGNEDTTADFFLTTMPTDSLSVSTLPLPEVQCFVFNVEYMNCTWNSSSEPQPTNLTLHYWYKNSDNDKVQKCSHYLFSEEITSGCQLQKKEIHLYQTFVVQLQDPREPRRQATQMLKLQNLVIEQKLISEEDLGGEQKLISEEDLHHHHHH
Put plainly: SPR, mAb captured on anti-hFc, 25 C. The procedure, abridged:
(§1)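 Surface plasmon resonance with anti-hFc-captured antibodies in pH 7.4 HEPES-buffered saline containing EDTA and Tween-20; kinetic constants from a 1:1 model.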
(In general: In SPR one partner is held on a chip, and binding of the other changes the refractive index at the surface.)

The target in test [2] is T2, D2 domain of human IL2Rγ extracellular domain expressed with a C-terminal myc-myc-hexahistidine tag (human).
T2 construct: also called human IL2Rγ domain 2
T2 chain: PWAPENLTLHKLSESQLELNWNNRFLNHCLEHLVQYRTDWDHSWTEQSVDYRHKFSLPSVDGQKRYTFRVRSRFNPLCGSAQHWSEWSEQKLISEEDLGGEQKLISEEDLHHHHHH
The experiment in a line: SPR, mAb captured on anti-hFc, 25 C. As to the method:
(§2) Equilibrium dissociation constants (KD values) for IL-2Rγ binding to purified anti-IL2Rγ monoclonal antibodies were determined using a Biacore 4000 instrument equipped with a real-time surface plasmon resonance biosensor. All binding studies were performed in 10 mM HEPES, 150 mM NaCl, 3 mM EDTA, and 0.05% v/v Surfactant Tween-20, pH 7.4 (HBS-ET) running buffer at 25° C. and 37° C. The Biacore sensor surface was first derivatized by amine coupling with a monoclonal mouse anti-human Fc antibody (GE, # BR-1008-39) to capture anti-IL2Rγ monoclonal antibodies.

Test [3] concerns the target T3, human IL2Rγ (endogenously expressed on cells) (human, UniProt P31785 23-369).
T3 sequence (looked up): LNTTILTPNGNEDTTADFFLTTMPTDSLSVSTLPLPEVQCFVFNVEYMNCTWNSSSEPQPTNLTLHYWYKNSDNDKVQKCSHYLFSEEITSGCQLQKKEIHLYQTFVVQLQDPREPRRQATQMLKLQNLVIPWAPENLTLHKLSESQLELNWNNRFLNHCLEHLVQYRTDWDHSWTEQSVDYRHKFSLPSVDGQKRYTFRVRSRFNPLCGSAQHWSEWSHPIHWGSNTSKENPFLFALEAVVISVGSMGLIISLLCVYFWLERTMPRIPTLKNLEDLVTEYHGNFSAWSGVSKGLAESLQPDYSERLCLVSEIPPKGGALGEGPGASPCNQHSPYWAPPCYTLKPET
Put plainly: cell-based or functional assay.

Test [4] addresses T2, D2 domain of human IL2Rγ extracellular …. The experiment in a line: SPR, mAb captured on anti-hFc, 37 C. As to the method:
as §2

Test [5] deals with T1, D1 domain of human IL-2Rγ extracellular …. The experiment in a line: SPR, mAb captured on anti-hFc, 37 C. In a few lines:
as §1

Test [6] addresses T4, Macaca fascicularis IL2Rγ extracellular domain expressed with a C-terminal myc-myc-hexahistidine tag (Macaca fascicularis).
T4 construct: also called mfIL-2Rg-MMH; mfIL-2RG-MMH
T4 chain: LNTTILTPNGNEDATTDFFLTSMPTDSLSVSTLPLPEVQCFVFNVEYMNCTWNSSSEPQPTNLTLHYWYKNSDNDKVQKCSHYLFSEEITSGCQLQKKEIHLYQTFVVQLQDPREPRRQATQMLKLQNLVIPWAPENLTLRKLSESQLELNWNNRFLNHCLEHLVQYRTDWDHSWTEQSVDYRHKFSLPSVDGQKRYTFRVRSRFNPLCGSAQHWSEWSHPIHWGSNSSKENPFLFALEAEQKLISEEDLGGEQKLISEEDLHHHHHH
Put plainly: SPR Biacore 4000, mAb captured by anti-hFc, 37C, dissociation in PBS-T pH 7.4. In a few lines:
(§3)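 Dissociation of receptor-MMH from Fc-captured IgG4 antibodies ran 6 minutes in PBS-T; kd was obtained by 1:1 curve fitting.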

Test [7] deals with T4, Macaca fascicularis IL2Rγ extracellular …. The experiment in a line: SPR Biacore 4000, mAb captured by anti-hFc, HBS-ET, 25C. In a few lines: as §1
For test [8] the target is unchanged. Put plainly: SPR Biacore 4000, mAb captured by anti-hFc, 37C, dissociation in PBS-T pH 6.0. In a few lines: as §3
The target in test [9] is T5, Human IL2Rγ extracellular domain expressed with a C-terminal myc-myc-hexahistidine tag (human).
T5 construct: also called hIL-2Rg-MMH; hIL-2RG-MMH
T5 chain: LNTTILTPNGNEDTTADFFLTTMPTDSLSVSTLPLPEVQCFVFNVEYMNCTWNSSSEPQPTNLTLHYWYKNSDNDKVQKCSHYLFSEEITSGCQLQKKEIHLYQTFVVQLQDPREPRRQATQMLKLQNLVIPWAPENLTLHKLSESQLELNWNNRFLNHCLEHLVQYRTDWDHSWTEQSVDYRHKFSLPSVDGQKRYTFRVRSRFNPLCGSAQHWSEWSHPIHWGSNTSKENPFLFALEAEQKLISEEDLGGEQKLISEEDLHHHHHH
Put plainly: SPR Biacore 4000, mAb captured by anti-hFc, HBS-ET, 25C; 25 C. As to the method:
as §2
The dissociation of monoclonal antibody bound IL2Rγ reagents were monitored for 8-10 minutes in HBS-ET running buffer. Kinetic association (kₐ) and dissociation (kd) rate constants were determined by fitting the real-time sensorgrams to a 1:1 binding model using Scrubber 2.0c curve fitting software. Binding dissociation equilibrium constants (KD) and dissociative half-lives (t_{1/2}) were calculated from the kinetic rate constants as: […]

The target of test [10] is T2, D2 domain of human IL2Rγ extracellular …. Put plainly: SPR, mAb captured on anti-hFc, 25 C; 25 C. As to the method: as §2

Bounds are passed on as bounds.

B1: H4H12871P (antibody, human IgG4 S228P, kappa, V domains shown)
VH: QVQLQESGPGLVKPSQTLSLTCTVSGGSITSGGYYWSWIRQYPGQGLEWIGYIYYSGKTYYNPSFTSRITISVDTSKKQFSLKMSSVTAADTAVYYCARAGFTSSNGWFDPWGQGTLVTVSS
VL: DIQMTQSPSSLSASVGDRVTITCRASQNIRSYLNWYQQKPGKAPKLLIYSASSLQSGVPSRFSGSGSGTDFTLTISSLQPEDFPTYYCQQTYSSPWTFGPGTKVEIKR
notes: human IgG4; also called REGN9434
Usually Kd stands for the concentration at which binding is half-saturated. For orientation: koff means a measure of how fast the partners let go of each other. A lower koff goes with a long-lived complex. The term kon denotes the rate constant with which the complex forms. A word on the t½: it is the time in which the quantity being followed falls by half. B1: in test [1], the “100 nM Ag Bound” value turned out to be 47 RU, the Kd came out at 11.8 nM, the koff was 0.00111 s⁻¹ and the kon was determined as 94000 M⁻¹ s⁻¹. The same molecule returned a t½ in test [1] of 600 s. Also, the “100 nM Ag Bound” value in test [2] came out at 0 RU. Moreover, in test [3], the “IC50; IL-7 50 pM; NK92/hIL7R/STAT3-luc” value amounted to 8.2e-10 M, the “Max Inhibition (%); IL-4 250 pM; Ramos.2G6.4C10/STAT3-luc” value came to 31% and the “Max Inhibition (%); IL-7 50 pM; NK92/hIL7R/STAT3-luc” value came to 36%. Further, in [4], the “100 nM Ag Bound” value is -1 RU. Moreover, in test [5], the “100 nM Ag Bound” value is 33 RU, the Kd stood at 21.2 nM, the koff is 0.0036 s⁻¹ and the kon was determined as 170000 M⁻¹ s⁻¹. The same molecule gave a t½ in test [5] of 192 s.

B2: H4H12926P2 (antibody, human IgG4 S228P, kappa, V domains shown)
VH: QVQLQQSGPGLVKPSQTLSLTCAISGDSVSSNIAAWNWIRLSPSRGLEWLGRTFFRSTWFYDYSLSVKGRITINPDTSKNQFSLHLNSVTPEDAAVYYCARTGRRWSLDYWGQGTLVTVSS
VL: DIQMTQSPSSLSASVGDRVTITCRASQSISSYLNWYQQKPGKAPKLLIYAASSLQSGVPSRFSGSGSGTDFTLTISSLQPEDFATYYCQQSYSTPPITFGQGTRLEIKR
notes: anti-IL2Rγ monoclonal antibody expressed with human IgG4 Fc
B2: in [6], the “100 nM Ag Bound (RU)” value is 25 RU, the koff amounted to 0.0279 s⁻¹ and the t1/2 was determined as 24 s. In test [7], the “100 nM Ag Bound” value was 11 RU, the Kd is 107 nM, the koff worked out at 0.0261 s⁻¹ and the kon turned out to be 244000 M⁻¹ s⁻¹. Besides, in test [7], the t1/2 worked out at 24 s. For the same molecule, in test [8], the “100 nM Ag Bound (RU)” value was 20 RU, the koff is 0.0303 s⁻¹ and the t1/2 came to 24 s. Further, in test [9], binding was put at a Kd of 132 nM, the koff amounted to 0.0264 s⁻¹, the kon came to 200000 M⁻¹ s⁻¹ and the t1/2 is 24 s.

B3: H4H12927P2 (antibody, human IgG4 S228P, kappa, V domains shown)
VH: EVQLVESGGGVVRPGGSLRLSCATSGFTFDDYGMSWVRQVPGKGLEWVSSVNRNGGTTDYADSVKGRFTISRDNAKRSLFLQMNSLRAEDTALYHCATGELFFDYWGQGTLVTVSS
VL: not shown
notes: human IgG4
On to B3, for which, in [1], the “100 nM Ag Bound” value was determined as 0 RU and the binding result is on record as “no binding (tested: 100 nM)”. In [3], the “IC50; IL-7 50 pM; NK92/hIL7R/STAT3-luc” value was > 1e-07 M, the “Max Inhibition (%); IL-2 30 pM; NK92/hIL7R/STAT3-luc” value is 18%, the “Max Inhibition (%); IL-4 250 pM; Ramos.2G6.4C10/STAT3-luc” value came to 33% and the “Max Inhibition (%); IL-7 50 pM; NK92/hIL7R/STAT3-luc” value turned out to be 46%. The “Max Inhibition (%); IL-15 60 pM; NK92/hIL7R/STAT3-luc” value in [3] came out at 34%. In [10], the affinity, expressed as Kd, was 69.9 nM; the dissociation rate constant (koff) was 0.0166 s⁻¹; the kon was determined as 238000 M⁻¹ s⁻¹; the t½ is 42 s. In addition, the “100 nM Ag Bound” value in test [5] came to 1 RU.

B4: H4H12927P2 (antibody, human IgG4 S228P, kappa, V domains shown)
VH: EVQLVESGGGVVRPGGSLRLSCATSGFTFDDYGMSWVRQVPGKGLEWVSSVNRNGGTTDYADSVKGRFTISRDNAKRSLFLQMNSLRAEDTALYHCATGELFFDYWGQGTLVTVSS
VL: not shown
notes: as for B2
Regarding B4, in test [6], the “100 nM Ag Bound (RU)” value was determined as 27 RU, the dissociation rate constant (koff) came to 0.00596 s⁻¹ and the t1/2 worked out at 114 s. Further, in test [7], the “100 nM Ag Bound” value came out at 12 RU, the Kd stood at 238 nM, the koff is 0.00686 s⁻¹ and the kon is 28800 M⁻¹ s⁻¹. The t1/2 in test [7] turned out to be 102 s. Moreover, in test [8], the “100 nM Ag Bound (RU)” value turned out to be 22 RU, the koff was 0.0129 s⁻¹ and the t1/2 was determined as 54 s. Moreover, in test [9], binding was characterised by a dissociation constant (Kd) of 96.5 nM, the koff was 0.00555 s⁻¹, the kon was found to be 57500 M⁻¹ s⁻¹ and the t1/2 was found to be 126 s.

B5: H4H12874P (antibody, human IgG4 S228P, kappa, V domains shown)
VH: QVQLVESGGGVVQPGRSLRLSCAASGFNFRNFGMHWVRQAPGKGLEWVAGILYDGSSKYYADSVKDRFTISRDNSKNTLFLQMNSLRAEDTAMYYCAKEEDTAMVPFDSWGPGTLVTVSS
VL: DIQLTQSPSFLSASVGDRVTITCWASQGISSYLAWYQQKPGKAPTLLIYAASTLQSGVPSRFSGSGSGTEFTLTISSLQPEDFASYYCQQLKSYPLTFGGGTKVEIKR
notes: human IgG4
In the case of B5, the “100 nM Ag Bound” value in test [1] was 0 RU. Besides, in test [3], the “IC50; IL-4 250 pM; Ramos.2G6.4C10/STAT3-luc” value is > 1e-07 M, the “IC50; IL-7 50 pM; NK92/hIL7R/STAT3-luc” value worked out at 4.1e-08 M, the “IC50; IL-9 20 pM; NK92/hIL7R/STAT3-luc” value is > 1e-07 M and the “IC50; IL-15 60 pM; NK92/hIL7R/STAT3-luc” value was > 1e-07 M. Moreover, in test [3], the “Max Inhibition (%); IL-2 30 pM; NK92/hIL7R/STAT3-luc” value turned out to be 26%, the “Max Inhibition (%); IL-4 250 pM; Ramos.2G6.4C10/STAT3-luc” value turned out to be 70%, the “Max Inhibition (%); IL-7 50 pM; NK92/hIL7R/STAT3-luc” value stood at 93% and the “Max Inhibition (%); IL-9 20 pM; NK92/hIL7R/STAT3-luc” value stood at 50%. Also, in [3], the “Max Inhibition (%); IL-15 60 pM; NK92/hIL7R/STAT3-luc” value was 55%. In [10], this molecule showed a Kd of 214 nM, a koff of 0.0435 s⁻¹, a kon of 203000 M⁻¹ s⁻¹ and a t½ of 18 s. In test [5], the “100 nM Ag Bound” value was found to be 1 RU and the binding result is “no binding (tested: 100 nM)”.
